{
  "source": "patent US8188081B2",
  "about": "“Methods of treating inflammation using prokineticin 1 receptor antagonists” (Janssen Pharmaceutica, NV, priority 2005, dated 2012)",
  "molecules": {"B1": {"name": "PK1: recombinant human Prokineticin 1 expressed in HEK 293 cells, FLAG tag cleaved; mixture of full-length and four C-terminal residue truncated product (protein, UniProt P58294 20-105, looked up)", "Prokineticin-1": "AVITGACERDVQCGAGTCCAISLWLRGLRMCTPLGREGEECHPGSHKVPFFRKRKHHTCPCLPNLLCSRFPDGRYRCSMDLKNINF", "modifications": "mixture with C-terminal 4-residue truncated form", "notes": "recombinant human Prokineticin 1 expressed in HEK 293 cells, FLAG tag cleaved; mixture of full-length and four C-terminal residue truncated product"}},
  "key": {"PK1R [1]": {"molecular_target": "T1, PK1R (Rattus norvegicus, UniProt Q8R416)", "T1 sequence (Q8R416 whole entry)": "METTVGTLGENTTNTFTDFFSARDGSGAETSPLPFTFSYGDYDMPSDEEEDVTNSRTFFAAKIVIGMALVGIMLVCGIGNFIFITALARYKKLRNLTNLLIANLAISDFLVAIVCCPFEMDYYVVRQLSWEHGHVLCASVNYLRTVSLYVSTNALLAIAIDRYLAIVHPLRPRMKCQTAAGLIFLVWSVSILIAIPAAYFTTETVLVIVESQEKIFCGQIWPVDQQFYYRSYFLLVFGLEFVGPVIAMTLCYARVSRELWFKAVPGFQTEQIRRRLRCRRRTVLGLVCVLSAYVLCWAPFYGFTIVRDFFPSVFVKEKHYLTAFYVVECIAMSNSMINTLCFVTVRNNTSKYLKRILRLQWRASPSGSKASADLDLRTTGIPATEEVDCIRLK", "details": "test compound 1 μM basolateral, 15 min; PK1 10 and 100 nM cumulative; FIGS. 9-11", "protocol": "Methodology. The basic methodology for Using-type ion flux chambers used in these studies was the same as that described in detail above with the following modifications to the experimental protocol. […] The responses to two sequential EFS were used to guage tissue viability and comparability of the responses of individual tissues from each rat and between rats. Tissue conductance was measured at periodic intervals as changes in the amplitudes of brief short-circuit current responses evoked by application of 1 mV amplitude bi-polar pulses from a pulse generator using Ohm's Law. Three to four tissues from each rat were studied. The tissues from a given animal were grouped and assigned accordingly: one control tissue which received only vehicle followed by two consecutive doses of PK1 ligand added in a cumulative fashion to the basolateral surface of the tissue; the remaining two to three tissues from the same animal were assigned to be exposed to a given PK1 receptor antagonist (e.g., 3-4 tissues from 1 rat: Control, Antagonist1, Antagonist2, Antagonist3). Test compound was added to the basolateral tissue side reservoir at a final concentration of 1 μM and allowed a 15 minute incubation period prior to challenge with the PK1 peptide. At the end of this 15 minute exposure period, PK1 ligand at 10 and 100 nM was added in a cumulative fashion to each tissue to characterize the inhibitory effect of the test compound. At the conclusion of the experiment, EFS was re-applied to guage tissue viability and stability of responsiveness."}, "PK1R [2]": {"molecular_target": "T1, PK1R", "assay": "Inhibition of PK1-induced contraction of rat ileal longitudinal smooth muscle by PK1R antagonists (organ bath)", "design": "from tissue; host or cells: isolated rat ileum (organ bath)", "details": "FIG. 19", "source_text": "The effects of PK1 on isolated segments of rodent gastrointestinal (GI) tissues have been studied ex vivo, using a “myobath” apparatus. This organ bath apparatus is used to measure the changes in contractile activity of GI smooth muscle following application of PK1, in the presence or absence of compounds that block PK1 receptor (PK1R)-mediated increases in intracellular free Ca^2+ in PK1R-transfected cells in vitro.\nMethods. Rodents (mice, rats, and guinea pigs) were euthanized by […], and exsanguinated. Segments of GI tissues, including stomach, duodenum, jejunum, ileum, proximal colon and distal colon were resected from the animals and mounted, either as intact segments (i.e., 15 mm long cylinders of intestine) or flat strips (˜2.5 mm×15 mm) oriented along the longitudinal muscle axis. In some experiments flat strips were oriented along the circular muscle axis. […]\nThe tissues were lengthened to impart a resting load of between […] (depending on the preparation), and equilibrated under these conditions for 1 hr, changing the bathing solution to fresh KRB every 15 min. […] The response to PK1 under these conditions is compared to the response of the same tissue preparation to ACh and the contraction (or relaxation) calculated as a percent of the response to ACh. […]"}, "rat ileum": {"test_system": "rat ileum", "assay": "Contractility of isolated rat GI segments ex vivo (myobath organ bath), response to PK1"}, "[3]": {"test_system": "ileum mucosal tissues from PK1 receptor knock-out mice", "assay": "PK1-evoked Isc in ileum mucosal tissues from PK1 receptor knock-out mice", "details": "exogenous PK1 peptide; FIG. 5"}, "rat small intestine [4]": {"test_system": "rat small intestine", "assay": "Enteropooling and accumulation of fluid in rat small intestine in vivo", "details": "30 min", "protocol": "Methodology. Experiments were carried out to gravimetrically measure the in vivo pro-secretory effect of PK1 peptide in the rat small bowel. The effect of PK1 peptide on stimulation of enteropooling and accumulation of fluid in the gut of intact rats was evaluated using two different routes of administration. Non-fasted rats were randomly assigned to two experimental groups (n=10 per group) in two separate experiments. In the first experiment, each rat was given an oral bolus (1.5 ml) of 6% carmine dye in 0.5% methylcellulose wt/vol containing a dose of PK1 peptide at 100 μg/kg or buffer vehicle. (See FIG. 12). […] (See FIG. 13). Thirty minutes later, rats were rapidly euthanized by cervical dislocation after inhalation anesthesia with 100% carbon dioxide and the entire small intestine was excised from the pylorus to the ileocecal junction. The total small bowel length was measured and then divided equally into thirds using 4-0 silk suture loops to ligate, isolate, and separate each segment to prevent leakage of intraluminal contents. […] Net fluid content weight was calculated as the difference between intact and empty intestinal segment weights to the nearest milligram and normalized to segment wet tissue weight in grams."}, "rat small intestine [5]": {"test_system": "rat small intestine", "assay": "Small intestinal transit of an oral carmine test meal in rats in vivo", "details": "oral PK1 100 μg/kg; 30 min; FIG. 14", "protocol": "Methodology. Small intestinal transit. Rats received a bolus of 1.5 ml total volume that contained a 6% solution of carmine dye in 0.5% methyl cellulose (wt/vol) together with a dose of either PK1 (100 μg/kg) or vehicle by oral feeding tube. After 30 min, the rats were rapidly euthanized by cervical dislocation after inhalation anesthesia with 100% carbon dioxide. The entire small intestine of each rat was carefully resected starting at the ileal-cecal junction first and working back toward the pylorus of the stomach until the entire small intestine had been removed intact. The excised small bowel was arranged lengthwise along a metric straight-edge, and the length of the entire small intestine was measured in centimeters. The leading edge of the carmine dye front was visualized and the distance traveled by the carmine was also measured and calculated as a percentage of the total excised length of the small intestine. Transit was expressed as the percentage of the total intestinal length traveled by the carmine dye in 30 minutes."}},
  "data": [
    {"molecule": "[H]/N=C(\\N)NCCNc1nc(=O)n(Cc2ccc(F)cc2)c(=O)n1Cc1ccc(OC)cc1", "note": "[JNJ 27624675]", "values": [
      {"measurement": "suppression of the PK1 evoked increase in Isc", "setting": "PK1R [1]", "value": "suppressed"}
    ]},
    {"molecule": "COc1ccc(Cn2c(NCCNC(=N)NC(C)C)nc(=O)n(Cc3ccc(Cl)c(Cl)c3)c2=O)cc1", "note": "[JNJ 28480894]", "values": [
      {"measurement": "suppression of the PK1 evoked increase in Isc", "setting": "PK1R [1]", "value": "suppressed"}
    ]},
    {"molecule": "COc1ccc(Cn2c(NCCn3c(N)nc4ccccc43)nc(=O)n(Cc3ccc(F)cc3)c2=O)cc1", "note": "[JNJ 28845557]", "values": [
      {"measurement": "suppression of the PK1 evoked increase in Isc", "setting": "PK1R [1]", "value": "suppressed"},
      {"measurement": "early versus late response inhibition", "setting": "PK1R [2]", "value": "more potent and more effective at inhibition of the early response"},
      {"measurement": "effect on the PK1-induced contraction of rat ileal longitudinal smooth muscle", "setting": "PK1R [2]; early and late components", "value": "concentration-dependent inhibitory effect"}
    ]},
    {"molecule": "B1", "values": [
      {"measurement": "response of intestinal tissues (mid-duodenum, jejunum, distal ileum)", "setting": "rat ileum; PK1 100 nM", "value": "evoked longitudinal contractions"},
      {"measurement": "response of proximal and distal colon", "setting": "rat ileum; PK1 100 nM", "value": "evoked longitudinal relaxations"},
      {"measurement": "time to peak contraction, early phase", "setting": "rat ileum; isolated rat ileum", "value": 6.4, "unit": "min"},
      {"measurement": "time to peak contraction, late phase", "setting": "rat ileum; isolated rat ileum", "value": 53.8, "unit": "min"},
      {"measurement": "change in Isc in tissues from PK1 receptor knock-out mice compared to wild-type littermates", "setting": "[3]", "value": "did not elicit a significant change in Isc"},
      {"measurement": "fluid accumulation in rat small bowel in vivo", "setting": "rat small intestine [4]; intraperitoneal PK1 100 μg/kg, FIG. 13", "value": "stimulates fluid accumulation"},
      {"measurement": "fluid accumulation in rat small bowel in vivo", "setting": "rat small intestine [4]; oral PK1 100 μg/kg, FIG. 12", "value": "stimulates fluid accumulation"},
      {"measurement": "small intestinal transit of a carmine test meal compared to vehicle", "setting": "rat small intestine [5]", "value": "significantly accelerated"}
    ]}
  ]
}
